Laboratory results taken from patent US20260042847A1 (Zymeworks, published 2026).

B1: v29001 (antibody)
chain 1: QVQLVQSGAEVKKPGASVKVSCKASGYIFTAYTMHWVRQAPGQGLEWMGWIKPNNGLANYAQKFQGRVTMTRDTSISTAYMELSRLRSDDTAVYYCARSEITTEFDYWGQGTLVTVSSASTKGPSVFPLAPSSKSTSGGTAALGCLVKDYFPEPVTVSWNSGALTSGVHTFPAVLQSSGLYSLSSVVTVPSSSLGTQTYICNVNHKPSNTKVDKKVEPKSCDKTHTCPPCPAPELLGGPSVFLFPPKPKDTLMISRTPEVTCVVVDVSHEDPEVKFNWYVDGVEVHNAKTKPREEQYNSTCYRVVSVLTVLHQDWLNGKEYKCKVSNKALPAPIEKTISKAKGQPREPQVYVYPPSRDELTKNQVSLTCLVKGFYPSDIAVEWESNGQPENNYKTTPPVLDSDGSFALVSKLTVDKSRWQQGNVFSCSVMHEALHNHYTQKSLSLSPG
chain 2: QVQLVQSGAEVKKPGASVKVSCKASGYIFTAYTMHWVRQAPGQGLEWMGWIKPNNGLANYAQKFQGRVTMTRDTSISTAYMELSRLRSDDTAVYYCARSEITTEFDYWGQGTLVTVSSASTKGPSVFPLAPSSKSTSGGTAALGCLVKDYFPEPVTVSWNSGALTSGVHTFPAVLQSSGLYSLSSVVTVPSSSLGTQTYICNVNHKPSNTKVDKKVEPKSCDKTHTCPPCPAPELLGGPSVFLFPPKPKDTLMISRTPEVTCVVVDVSHEDPEVKFNWYVDGVEVHNAKTKPREEQYNSTCYRVVSVLTVLHQDWLNGKEYKCKVSNKALPAPIEKTISKAKGQPREPQVYVLPPSRDELTKNQVSLLCLVKGFYPSDIAVEWESNGQPENNYLTWPPVLDSDGSFFLYSKLTVDKSRWQQGNVFSCSVMHEALHNHYTQKSLSLSPG
chain 3: not shown
B2: v17427 (antibody)
chain 1: QVQLVQSGAEVKKPGASVKVSCKASGYIFTAYTMHWVRQAPGQGLEWMGWIKPNNGLANYAQKFQGRVTMTRDTSISTAYMELSRLRSDDTAVYYCARSEITTEFDYWGQGTLVTVSSASTKGPSVFPLAPSSKSTSGGTAALGCLVKDYFPEPVTVSWNSGALTSGVHTFPAVLQSSGLYSLSSVVTVPSSSLGTQTYICNVNHKPSNTKVDKKVEPKSCDKTHTCPPCPAPELLGGPSVFLFPPKPKDTLMISRTPEVTCVVVDVSHEDPEVKFNWYVDGVEVHNAKTKPREEQYNSTYRVVSVLTVLHQDWLNGKEYKCKVSNKALPAPIEKTISKAKGQPREPQVYVYPPSRDELTKNQVSLTCLVKGFYPSDIAVEWESNGQPENNYKTTPPVLDSDGSFALVSKLTVDKSRWQQGNVFSCSVMHEALHNHYTQKSLSLSPG
chain 2: not shown
chain 3: not shown

Experiments:
[1] = target: T1, c-Met (UniProt P08581 25-1390, limits assumed); assay: flow cytometry on EBC-1 cells
T1 construct: whole, on cells; Target on cells
T1 sequence (P08581 25-1390 limits assumed): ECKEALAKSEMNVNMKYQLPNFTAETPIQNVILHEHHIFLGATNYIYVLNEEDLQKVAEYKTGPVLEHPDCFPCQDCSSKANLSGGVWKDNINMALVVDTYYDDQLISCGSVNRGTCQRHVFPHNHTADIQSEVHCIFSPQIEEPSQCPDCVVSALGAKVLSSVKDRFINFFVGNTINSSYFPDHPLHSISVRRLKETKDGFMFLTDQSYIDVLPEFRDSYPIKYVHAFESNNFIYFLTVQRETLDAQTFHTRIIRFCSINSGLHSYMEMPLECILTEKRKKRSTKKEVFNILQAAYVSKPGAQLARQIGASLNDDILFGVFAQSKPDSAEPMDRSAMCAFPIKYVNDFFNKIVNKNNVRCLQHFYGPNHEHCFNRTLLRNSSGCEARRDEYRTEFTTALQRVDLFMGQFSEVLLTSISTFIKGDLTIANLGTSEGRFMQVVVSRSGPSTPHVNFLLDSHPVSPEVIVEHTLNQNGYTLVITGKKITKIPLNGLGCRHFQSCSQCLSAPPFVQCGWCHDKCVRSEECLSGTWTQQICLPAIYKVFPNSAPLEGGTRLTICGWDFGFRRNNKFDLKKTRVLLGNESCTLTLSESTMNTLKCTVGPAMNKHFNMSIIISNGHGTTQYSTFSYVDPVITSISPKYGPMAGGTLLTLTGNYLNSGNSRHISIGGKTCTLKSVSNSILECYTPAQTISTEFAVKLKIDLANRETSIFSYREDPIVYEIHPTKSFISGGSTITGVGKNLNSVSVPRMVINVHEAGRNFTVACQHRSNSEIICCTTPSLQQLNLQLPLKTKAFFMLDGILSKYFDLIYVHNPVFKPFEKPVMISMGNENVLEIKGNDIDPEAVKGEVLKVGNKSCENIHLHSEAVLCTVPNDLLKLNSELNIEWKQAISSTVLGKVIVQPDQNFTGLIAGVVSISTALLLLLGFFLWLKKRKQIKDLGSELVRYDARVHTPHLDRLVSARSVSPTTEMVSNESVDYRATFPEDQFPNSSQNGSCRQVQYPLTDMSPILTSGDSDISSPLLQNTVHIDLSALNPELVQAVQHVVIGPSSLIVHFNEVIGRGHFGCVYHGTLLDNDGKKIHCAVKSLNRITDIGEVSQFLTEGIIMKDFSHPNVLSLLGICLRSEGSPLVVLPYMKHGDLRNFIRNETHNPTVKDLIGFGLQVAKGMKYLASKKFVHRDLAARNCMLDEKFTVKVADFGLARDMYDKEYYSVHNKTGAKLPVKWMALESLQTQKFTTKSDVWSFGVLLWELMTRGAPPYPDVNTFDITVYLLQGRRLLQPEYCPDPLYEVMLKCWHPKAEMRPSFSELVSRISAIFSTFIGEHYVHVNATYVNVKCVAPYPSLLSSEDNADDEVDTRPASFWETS

[2] = target: T1, c-Met; assay: flow cytometry on EBC-1 cells, apparent Kd
[3] = target: T2, Human FcRn with a C-terminal biotin on the large subunit (Human, UniProt P55899 24-297; P61769 21-119, C-terminal biotin); assay: SPR, FcRn captured, antibody injected, pH 5.9
T2 construct: Captured on neutravidin for SPR; also called neonatal Fc receptor
T2 sequence (P55899 24-297 limits assumed, chain 1 of 2): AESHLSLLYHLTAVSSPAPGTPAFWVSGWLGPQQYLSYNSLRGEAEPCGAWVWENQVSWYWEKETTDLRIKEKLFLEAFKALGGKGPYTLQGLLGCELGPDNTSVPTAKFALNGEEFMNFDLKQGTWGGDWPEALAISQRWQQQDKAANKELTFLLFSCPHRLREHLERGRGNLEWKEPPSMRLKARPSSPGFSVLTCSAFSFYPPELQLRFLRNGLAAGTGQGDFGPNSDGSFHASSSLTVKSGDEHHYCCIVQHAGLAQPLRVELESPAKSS
T2 sequence (P61769 21-119 limits assumed, chain 2 of 2): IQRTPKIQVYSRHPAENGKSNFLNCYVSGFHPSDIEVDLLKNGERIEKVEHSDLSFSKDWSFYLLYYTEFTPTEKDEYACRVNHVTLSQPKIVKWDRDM

[4] = target: CD64a (FcγRI) (UniProt P12314 16-288, limits assumed); assay: SPR, antibody captured on Protein A, FcγR injected
Chain of CD64a (FcγRI) (P12314 16-288 limits assumed): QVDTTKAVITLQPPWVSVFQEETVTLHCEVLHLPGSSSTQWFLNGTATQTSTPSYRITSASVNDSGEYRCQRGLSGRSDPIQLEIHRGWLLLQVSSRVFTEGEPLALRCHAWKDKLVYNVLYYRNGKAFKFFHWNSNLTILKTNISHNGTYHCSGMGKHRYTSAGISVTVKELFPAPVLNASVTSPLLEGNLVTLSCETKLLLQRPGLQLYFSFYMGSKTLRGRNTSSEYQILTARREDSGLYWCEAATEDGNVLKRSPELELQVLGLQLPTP

[5] = target: T1, c-Met; assay: flow cytometry on H292 cells, apparent Kd
[6] = target: T1, c-Met; assay: flow cytometry on BT-20 cells, apparent Kd
[7] = target: T1, c-Met; assay: flow cytometry on EBC-1 cells, apparent Kd; remark: listed apart in the source
[8] = target: T3, CD32a (FcγRIIA), allelic form His131 (UniProt P12318 36-218, limits assumed); assay: SPR, antibody captured on Protein A, FcγR injected
T3 construct: also called CD32aH
T3 sequence (looked up): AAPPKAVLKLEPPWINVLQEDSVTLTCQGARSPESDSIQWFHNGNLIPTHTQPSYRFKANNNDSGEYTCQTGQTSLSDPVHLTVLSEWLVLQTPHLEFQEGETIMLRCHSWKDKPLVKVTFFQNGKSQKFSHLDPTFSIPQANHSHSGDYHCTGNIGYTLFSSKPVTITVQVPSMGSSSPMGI

[9] = target: T4, CD32a (FcγRIIA), allelic form Arg131 (UniProt P12318 36-218, limits assumed); assay: SPR, antibody captured on Protein A, FcγR injected
T4 construct: also called CD32aR
T4 sequence (looked up): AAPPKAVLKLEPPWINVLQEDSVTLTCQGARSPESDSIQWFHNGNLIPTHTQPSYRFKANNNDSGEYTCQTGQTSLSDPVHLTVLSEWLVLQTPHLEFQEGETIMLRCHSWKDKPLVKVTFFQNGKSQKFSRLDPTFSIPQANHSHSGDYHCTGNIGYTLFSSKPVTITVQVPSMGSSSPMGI

[10] = target: T5, CD32b (FcγRIIB) (UniProt P31994 43-217, limits assumed); assay: SPR, antibody captured on Protein A, FcγR injected
T5 construct: The 'Y' of CD32bY is not explained; also called CD32bY
T5 sequence (looked up): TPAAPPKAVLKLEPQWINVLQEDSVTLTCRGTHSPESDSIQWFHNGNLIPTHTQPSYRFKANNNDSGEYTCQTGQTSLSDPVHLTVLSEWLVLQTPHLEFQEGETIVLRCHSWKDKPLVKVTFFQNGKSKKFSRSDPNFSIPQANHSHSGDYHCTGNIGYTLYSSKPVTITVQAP

[11] = target: CD16a (FcγRIIIA), allelic form F158 (UniProt P08637 17-208); assay: SPR, antibody captured on Protein A, FcγR injected
Chain of CD16a (FcγRIIIA), allelic form F158 (P08637 17-208 limits assumed): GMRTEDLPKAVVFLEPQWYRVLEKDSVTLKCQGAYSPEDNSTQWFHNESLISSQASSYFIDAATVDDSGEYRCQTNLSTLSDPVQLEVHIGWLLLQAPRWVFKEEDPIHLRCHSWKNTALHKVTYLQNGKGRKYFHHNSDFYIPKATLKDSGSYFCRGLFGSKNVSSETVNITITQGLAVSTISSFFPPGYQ

[12] = target: T6, CD16a (FcγRIIIA), allelic form V158 (UniProt P08637 17-208); assay: SPR, antibody captured on Protein A, FcγR injected
T6 construct: also called CD16aV
T6 sequence (P08637 17-208 F176V limits assumed): as the sequence (P08637 17-208 limits assumed) above, with F160V counted along it

| Binder | fold greater Kd against control v17427 [1] [fold] | Kd [2] [nM] | Kd [3] [nM] | Kd [4] [nM] | Kd [5] [nM] | Kd [6] [nM] | Kd [7] [nM] | Kd [8] [nM] | Kd [9] [nM] | Kd [10] [nM] | Kd [11] [nM] | Kd [12] [nM] |
| --- | --- | --- | --- | --- | --- | --- | --- | --- | --- | --- | --- | --- |
| B1 | 5 | 0.57 | 208 | 143 |  |  |  |  |  |  |  |  |
| B2 |  | 0.1 | 297 | 0.0486 | 0.02 | 0.02 | 0.14 | 410 | 588 | 2630 | 1450 | 461 |
